Data: patent US20180207276A1, “MODIFIED THERAPEUTIC AGENTS AND COMPOSITIONS THEREOF” (THE CALIFORNIA INSTITUTE FOR BIOMEDICAL RESEARCH, priority 2015, published 2018)
Positions of bridges follow the written chain, without caps; N, C: chain ends. Non-standard residues stand in square brackets, D forms with d. Primed or numbered codes have the meaning given here. Chains are numbered I, II in the order given. No end group written: not given here. *: point of attachment. FA2″ = lipid moiety from Br-FA2: acetamide, two PEG2-propionic acid units, Lys and octadecanedioic acid; X1 = O=C(O)CCCCCCCCCCCCCCCCC(=O)N[C@@H](CCCCNC(=O)CCOCCOCCNC(=O)CCOCCOCCNC(=O)C*)C(=O)O; X2 = O=C(O)CCCCCCCCCCCCCCCCC(=O)N[C@@H](CCCCn1cc(COCCOCCOCCOCCOCCNC(=O)C*)nn1)C(=O)O; X3 = CCCCCCCCCCCCCCCCCC(=O)N[C@@H](CCCCNC(=O)CCOCCOCCOCCOCCOCCNC(=O)C*)C(=O)O; X4 = CCCCCCCCCCCCCC(=O)N[C@@H](CCCCNC(=O)CCOCCOCCOCCOCCOCCNC(=O)C*)C(=O)O; FA183 = acetamide-PEG5-Lys-octadecanedioic acid; ALK = (PEG)5-bromo-alkyne, S-alkylating Cys; FA182 = acetamide-PEG5-Lys-myristic acid; FA186 = acetamide-PEG5-Lys-stearic acid; pGlu = O=C1CC[C@@H](C(=O)O)N1; FA155 = not defined here; FA2 = not defined here

T1: LGR7 (Homo sapiens, UniProt Q9HBX9)
T1 construct: expressed in transfected cells; host or cells: HEK293T cells stably expressing recombinant LGR7, transduced with CRE-Luc lentivirus
T1 sequence (Q9HBX9 1-757): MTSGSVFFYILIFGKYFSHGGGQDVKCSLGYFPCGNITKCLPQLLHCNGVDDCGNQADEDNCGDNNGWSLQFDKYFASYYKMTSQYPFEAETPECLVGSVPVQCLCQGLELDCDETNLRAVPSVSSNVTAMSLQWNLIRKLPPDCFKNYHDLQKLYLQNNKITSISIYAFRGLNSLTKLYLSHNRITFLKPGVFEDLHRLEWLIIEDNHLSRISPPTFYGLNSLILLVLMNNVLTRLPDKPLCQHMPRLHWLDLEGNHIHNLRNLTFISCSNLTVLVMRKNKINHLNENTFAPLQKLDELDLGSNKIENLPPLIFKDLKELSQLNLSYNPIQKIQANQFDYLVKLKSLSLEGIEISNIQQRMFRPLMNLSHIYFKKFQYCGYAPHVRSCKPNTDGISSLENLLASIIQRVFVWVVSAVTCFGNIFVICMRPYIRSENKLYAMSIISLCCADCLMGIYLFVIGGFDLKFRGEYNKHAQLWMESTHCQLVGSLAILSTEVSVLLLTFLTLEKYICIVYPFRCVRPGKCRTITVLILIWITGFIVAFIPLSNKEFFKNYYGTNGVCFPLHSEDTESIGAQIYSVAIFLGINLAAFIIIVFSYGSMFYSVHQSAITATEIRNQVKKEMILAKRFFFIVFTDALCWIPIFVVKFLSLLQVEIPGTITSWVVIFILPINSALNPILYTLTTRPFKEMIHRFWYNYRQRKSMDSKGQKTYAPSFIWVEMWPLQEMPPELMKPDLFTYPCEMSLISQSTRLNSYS

T2: LGR7 (relaxin 2 receptor), recombinant, stably expressed in HEK293T cells with a CRE-Luc reporter (UniProt Q9HBX9 1-757, limits assumed)
T2 sequence (looked up): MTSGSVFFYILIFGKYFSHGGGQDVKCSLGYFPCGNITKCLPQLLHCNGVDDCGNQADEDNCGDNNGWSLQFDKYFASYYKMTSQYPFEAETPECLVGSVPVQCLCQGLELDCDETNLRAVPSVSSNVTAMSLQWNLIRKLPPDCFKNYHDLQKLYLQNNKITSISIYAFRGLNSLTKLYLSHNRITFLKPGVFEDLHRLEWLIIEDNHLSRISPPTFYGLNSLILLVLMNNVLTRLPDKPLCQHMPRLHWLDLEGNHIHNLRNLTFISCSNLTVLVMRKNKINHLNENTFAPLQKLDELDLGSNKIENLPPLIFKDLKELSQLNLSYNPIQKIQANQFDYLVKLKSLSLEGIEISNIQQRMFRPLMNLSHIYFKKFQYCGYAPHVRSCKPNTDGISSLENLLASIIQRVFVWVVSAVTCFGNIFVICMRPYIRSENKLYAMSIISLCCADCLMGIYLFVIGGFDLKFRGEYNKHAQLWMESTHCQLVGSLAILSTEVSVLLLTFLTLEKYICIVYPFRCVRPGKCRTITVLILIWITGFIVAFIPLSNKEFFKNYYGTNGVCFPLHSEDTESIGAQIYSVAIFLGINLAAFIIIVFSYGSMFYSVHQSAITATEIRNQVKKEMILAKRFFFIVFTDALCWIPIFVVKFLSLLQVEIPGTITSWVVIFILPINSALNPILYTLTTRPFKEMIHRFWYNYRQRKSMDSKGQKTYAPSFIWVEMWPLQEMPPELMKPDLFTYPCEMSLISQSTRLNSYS

B1: Relaxin-B:D1A-A:Q1-L2C-FA2 (ligand)
chain 1: ASWMEEVIKLCGRELVRAQIAICGMSTWS
chain 2: QC(FA2″)YSALANKCCHVGCTKRSLARFC
modifications: ends and bridges not checked
B2: Relaxin-B:D1A-A:Q1-L2C-FA186 (ligand)
chain 1: ASWMEEVIKLCGRELVRAQIAICGMSTWS
chain 2: QC(FA186)YSALANKCCHVGCTKRSLARFC
modifications: ends and bridges not checked
B3: Relaxin-B:D1A (ligand)
chain 1: ASWMEEVIKLCGRELVRAQIAICGMSTWS
chain 2: QLYSALANKCCHVGCTKRSLARFC
modifications: ends and bridges not checked; cysteine pairing not given here
B4: Relaxin-wt (ligand)
chain 1: DSWMEEVIKLCGRELVRAQIAICGMSTWS
chain 2: QLYSALANKCCHVGCTKRSLARFC
modifications: ends and bridges not checked; cysteine pairing not given here
B5: Relaxin-B:D1A-A:Q1-L2C-FA183 (ligand)
chain 1: ASWMEEVIKLCGRELVRAQIAICGMSTWS
chain 2: QC(FA183)YSALANKCCHVGCTKRSLARFC
modifications: ends and bridges not checked
B6: Relaxin-B:D1A-A:Q1-L2C-FA182 (ligand)
chain 1: ASWMEEVIKLCGRELVRAQIAICGMSTWS
chain 2: QC(FA182)YSALANKCCHVGCTKRSLARFC
modifications: ends and bridges not checked
B7: Relaxin-B:D1A-A:pQ1-L2C-FA2 (ligand)
chain 1: ASWMEEVIKLCGRELVRAQIAICGMSTWS
chain 2: XCYSALANKCCHVGCTKRSLARFC
modifications: pyroglutamate (pQ) at position 1; Cys 2 S-alkylated with FA2 (from Br-FA2, Example 6)
B8: Relaxin-B:D1A-A:Q1-L2C-ALK (ligand)
chain 1: ASWMEEVIKLCGRELVRAQIAICGMSTWS
chain 2: QC(ALK)YSALANKCCHVGCTKRSLARFC
modifications: ends and bridges not checked
B9: Relaxin-B:D1A-A:Q1:V13C-FA2 (ligand)
chain 1: ASWMEEVIKLCGRELVRAQIAICGMSTWS
chain 2: QLYSALANKCCHC(FA2)GCTKRSLARFC
modifications: ends and bridges not checked
B10: Relaxin-B:D1A-A:Q1-L2C-FA155 (ligand)
chain 1: ASWMEEVIKLCGRELVRAQIAICGMSTWS
chain 2: QC(FA155)YSALANKCCHVGCTKRSLARFC
modifications: ends and bridges not checked

Columns and labels:
LGR7 = molecular target: T1, LGR7; experiment: LGR7 CRE-Luc reporter gene assay (bioactivity of relaxin peptides); type: cell-based; conditions: HEK293T cells expressing LGR7 and CRE-Luc; for Activity, fold drop compared to relaxin: fold drop relative to relaxin; for EC50: 18 hours incubation, luciferase readout
Description: Relaxin 2 signals through leucine-rich repeat-containing GPCRs (i.e LGR7 (RFXR1)). The bioactivity of wild-type relaxin peptides was determined based on the stimulation of adenylate cyclase activity in HEK293T cells stably expressing recombinant LGR7. Stable LGR7 expressing cells were maintained in Dulbecco's modified Eagle's medium/F-12 media supplemented with 200 ng/ml Zeocin (Invitrogen). A cyclic AMP responsive element driven luciferase (CRE-Luc) reporter line was generated by lentiviral transduction of these LGR7 expressing HEK293T cells with CRE-Luc lentivirus (Qiagen) and selected with puromycine (2 μg/mL) for two weeks. A reporter gene assay was used to detect cAMP levels and LGR7 activation by relaxin.
Assay detail: HEK293T cells expressing LGR7 and CRE-Luc are seeded at a density of 5×10^3 cells per well in 50 μL of Dulbecco's modified Eagle's medium/F-12 medium containing 10% FBS in 384-well solid bottom white plates. Cells are pre-incubated at 37° C. overnight. Different concentrations of relaxin peptides (from 0.01 nM to 1000 nM) were added in triplicate, incubated for 18 hours and luciferase activity was detected by adding […], of Bright Glo (Promega). Luminescence was recorded on Envision (Perkin Elmer). EC50 is calculated after non-linear curve fitting (see FIG. 2 for relaxin H2 dose response curve).

[1] = Mouse in vivo PK study for half-life extension; design: species or system CD1 female mice; conditions: 0.3 mg/kg in NH4Ac buffer, plasma levels by cell-based reporter gene assay; for half-life: female, CD1, sc
Description: Lipid conjugated relaxin or other therapeutic agents were dosed in mice using sc, po, iv dosing. Plasma levels of TA were determined by LGR7 activation at different time points (e.g., i.v. PK 5 min, 0.5h, 1h, 2h 4h, 8h, 24h, 48h).

in vivo = conditions: female, Dahl salt sensitive (DSS), rat, plasma, sc, 0.3 mg/kg
Description: To ensure accurate determination of active relaxins, plasma samples collected at intervals between 0-24 hrs were analyzed using the cell-based reporter gene assay.
Bioanalysis: Serum samples were diluted (1:100) in 5 point serial dilutions (1:3) and measured RXFP1 luciferase reporter activity following assay protocol. Injected peptide were used as a standard to get standard curve and obtained parameters for Bottom, Top, EC50, Hill Slope. Obtained activity values (RLU) were selected (in the linear range of the standard curve) were used to calculate the concentrations in plasma (nmol/L) using equation from standard curve (Y=Bottom+(Top-Bottom)/(1+10̂((Log IC50−X)*Hill Slope))

[2] = molecular target: T2, LGR7 (relaxin 2 receptor), recombinant, …; experiment: cell-based or functional assay

Row | Molecule | Activity, fold drop compared to relaxin (LGR7) | half-life [1] [h] | Activity, fold drop compared to relaxin [2] [fold] | LGR7 EC50 (pM), CRE-Luc reporter in HEK293T cells expressing LGR7 [2] [pM] | other results
1 | CC[C@H](C)[C@@H]1NC(=O)[C@H](C)NC(=O)[C@H]([C@@H](C)CC)NC(=O)[C@H](CCC(N)=O)NC(=O)[C@H](C)NC(=O)[C@H](CCCNC(=N)N)NC(=O)[C@H](C(C)C)NC(=O)[C@H](CC(C)C)NC(=O)[C@H](CCC(=O)O)NC(=O)[C@H](CCCNC(=N)N)NC(=O)CNC(=O)[C@@H](NC(=O)[C@H](CC(C)C)NC(=O)[C@H](CCCCN)NC(=O)[C@@H](NC(=O)[C@@H](NC(=O)[C@H](CCC(=O)O)NC(=O)[C@H](CCC(=O)O)NC(=O)[C@H](CCSC)NC(=O)[C@H](Cc2c[nH]c3ccccc23)NC(=O)[C@H](CO)NC(=O)[C@H](C)N)C(C)C)[C@@H](C)CC)CSSC[C@@H]2NC(=O)[C@@H](NC(=O)[C@H](CCCCN)NC(=O)[C@H](CC(N)=O)NC(=O)[C@H](C)NC(=O)[C@H](CC(C)C)NC(=O)[C@H](C)NC(=O)[C@H](CO)NC(=O)[C@H](Cc3ccc(O)cc3)NC(=O)[C@H](CSCC(=O)NCCOCCOCCOCCOCCOCCOCCOCCOCCC(=O)NCCCC[C@H](NC(=O)CCCCCCCCCCCCCCCCC(=O)O)C(=O)O)NC(=O)[C@@H](N)CCC(N)=O)CSSC[C@H](NC(=O)CNC(=O)[C@H](C(C)C)NC(=O)[C@H](Cc3c[nH]cn3)NC2=O)C(=O)N[C@@H]([C@@H](C)O)C(=O)N[C@@H](CCCCN)C(=O)N[C@@H](CCCNC(=N)N)C(=O)N[C@@H](CO)C(=O)N[C@@H](CC(C)C)C(=O)N[C@@H](C)C(=O)N[C@@H](CCCNC(=N)N)C(=O)N[C@@H](Cc2ccccc2)C(=O)N[C@H](C(=O)O)CSSC[C@@H](C(=O)NCC(=O)N[C@@H](CCSC)C(=O)N[C@@H](CO)C(=O)N[C@H](C(=O)N[C@@H](Cc2c[nH]c3ccccc23)C(=O)N[C@@H](CO)C(=O)O)[C@@H](C)O)NC1=O [compound 8] | 8 | 9.5 | – | – | –
2 | I: ASWMEEVIKLCGRELVRAQIAICGMSTWS / II: QC(X2)YSALANKCCHVGCTKRSLARFC (disulfide I:11-II:11, I:23-II:24, II:10-II:15) [compound 3] | 12 | 6 | – | – | EC50 (LGR7): 210 pM
3 | I: ASWMEEVIKLCGRELVRAQIAICGMSTWS / II: QC(X3)YSALANKCCHVGCTKRSLARFC (disulfide I:11-II:11, I:23-II:24, II:10-II:15) [compound 9] | 10 | 3.4 | – | – | –
4 | I: ASWMEEVIKLCGRELVRAQIAICGMSTWS / II: QC(X4)YSALANKCCHVGCTKRSLARFC (disulfide I:11-II:11, I:23-II:24, II:10-II:15) [compound 7] | 2 | 8 | – | – | –
5 | I: ASWMEEVIKLCGRELVRAQIAICGMSTWS / II: QLYSALANKCCHC(X1)GCTKRSLARFC (disulfide I:11-II:11, I:23-II:24, II:10-II:15) [compound 2] | 15 | 8 | – | – | –
6 | I: H-ASWMEEVIKLCGRELVRAQIAICGMSTWS / II: H-QC(X1)YSALANKCCHVGCTKRSLARFC (disulfide I:11-II:11, I:23-II:24, II:10-II:15) [compound 1] | 12 | 8 | – | – | EC50 (LGR7): 210 pM
7 | I: H-ASWMEEVIKLCGRELVRAQIAICGMSTWS / II: [pGlu]C(X1)YSALANKCCHVGCTKRSLARFC (disulfide I:11-II:11, I:23-II:24, II:10-II:15) [compound 5] | 12 | – | – | – | half-life (in vivo): 16 h
8 | Relaxin-B:D1A (chain 1 ASWMEEVIKLCGRELVRAQIAICGMSTWS; chain 2 QLYSALANKCCHVGCTKRSLARFC) [unconjugated relaxin analog with D1A substitution in the B chain] | – | – | – | – | Half-life (mouse, sc) [1]: 0.8 h
9 | Relaxin-wt [reference compound] | – | – | – | – | Half-life (mouse, sc) [1]: 0.7 h
10 | B1 | – | – | 12 | 210 | –
11 | B2 | – | – | 10 | 235 | –
12 | B3 | – | – | 1 | 45 | –
13 | B4 | – | – | 1 | ~40 | –
14 | B5 | – | – | 8 | 174 | –
15 | B6 | – | – | 2 | 51 | –
16 | B7 | – | – | 12 | 350 | –
17 | B8 | – | – | 1 | 17 to 50 | –
18 | B9 | – | – | 15 | 250 | –
19 | B10 | – | – | 12 | 210 | –
